# Source: the domain aggregation screens of Martell et al. (2025)
# Test: soluble fraction after stress (log2 fold change); higher = more stays soluble; pooled small domains, quantitative proteomics
# Conditions: stress: pH 4
# Summary of the method: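 Aggregation propensity here comes from the fold change in the soluble amount of each small protein domain after acid stress, measured in pooled custom libraries by high-throughput quantitative proteomics. The acid stress was pH 4. On the log2 scale, higher values mean more of the domain stayed soluble.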
row,Sequence,soluble fraction (log2)
1,HMSLLQTRQRHEALAALGFFKGDVAAEWSAASTEALRAAQASLGIRVDGKWGPQTEDAIGKALAERQG,0.108
2,HMKRRSVIVSVVRAQVRQSADEAAAVVFEAEKNVSLDYLETMPGGWVKVRHRDGQTGFVRVNQIWG,-0.79
3,HMEDEAVMQLPLSELKGLSPELLAILNGAGYEKLKDVLDLEREDIERIPGMTPERNEQLVAFLAELTE,-1.98
4,HMSHSVLIDISQLRIGMYIQLDVGWMHHPFPVSSFRVASLEQIEALRTLNLAQVRYFPAKSDPV,-1.11
5,HMVPQAVQDIKAYLASGALPYIGPATAKKIVAMFGSDALDVIAEHPEQLTAIRGLNEEKANAIHQEFRRQF,0.0364
6,HMIPDAIDPDGRFKWRAGEAVVGFGRHAGEPLKKIAIENPEFLRWILKADFSTDVKKIASDALKGYFPEK,0.284
7,HMRYFDDEELNNKFLEFLSMRKKIRKPVRTDRALKALLKKLHELSGGDVGLMKQIIDQSLDKEWLGLFEL,-0.6
8,HMFTEEQMDWLRLIKDHIVASLSILPEDLELTPFDRKGGLLGFYDAFGDEYEKILQEMNEELVA,-0.43
9,HMQKKYLAVKEYLLEQINSGAYQPDEPIPPEREMAAMLGVNRMTLRRAVEELMYEGLLIRKKGSGTFLTK,-0.714
10,HMADEGFRQTVLAVLARWESKIHHGQYNALKAKVMNGNWSSFVKQVVKFQGKFIHPDAAKELLGLFG,-1.17
11,HMENTGFKDKKGNYIFDGDIVKDILGNIMKVEFKHFKWQLIPLNKTAFNMPMVDWLDLETETLNAEIIGN,-1.69
12,HMTSQVTVHVVGAVEKPGVVTLDAPSRVQDALEAAGGALPEAELSGVNLARELFDGEQIVVPAQGEDV,0.0598
13,HMRIEDTMDYINKIKEKLKNNGGVITSKEFTRSNIPTIYLTRMVETGELIRIDRGIYINSSG,-0.462
14,HMSQLTVGTVVTGNASLQTQGLKLPSFASGSRPASPNIGQMIWNSSDAKAQIWNGSEWDDVG,≥ 0.43
15,HMNIFKLYEENIGPLTPMIADILKEDEAEFPDYWIREAIEIAVKKNARNWKYVHAVLESWQKE,-0.259
16,HMQEPNYQPLMQNIKSQDLEEVTRLLSLNDVKFKIDHRTGLLLVESSRVYEAKMKLAATGITD,-1.15
17,HMNFDLDSFKQRMTLDGLYFGNEKQDVIALNNLSERYQLTWFDVYQLAKETSSNHKILPKRILVKLQQ,0.158
18,HMSAPLKELGNDPESGKPIVVKDGRFGAYVTDGETNATLRKTDAVESLTPERAAELLAEKRAKG,0.199
19,HMDAEETLGARLRRLRQARGLSLAGLAQAAGLSKPSIWAWENGTTAPRRTSLLALARALDVPEQQLTGV,-0.173
20,HMNRMKLLREQHNLSQTDLAKILNISRQSYNFYENEKRDPDTTMLIRIADFFNVSLDYLLGRTNN,-0.0385
21,HMSDESALIAAIEKAIAAQPETAEKVRNGHLPAAGALIGSVMKETKGQADAARVRELLLGLLGQ,0.0231
22,HMNREEFLSQLERLLYDIPAQEREEALEYYNGYFDDAGKEKEAEVIQELGSPGKVAAIIKADLSG,-0.605
23,HMILYDDEYKGPRYRYGLHSRPLSPGAVPKGFIIHSDRPHPDFRHGTLDYPVKLPDDRAANFELIFIGEFD,-1.19
24,HMSTKEFTIHAGEWSYRVSQKLENLGLVSDAKKFDQYLEDNGYSSKIKIGHYTISKDADFEEIAKEIT,0.0658
25,HMEWEVHSVTVTPELSGERLDVAATALLSQFSRALVQRWIDANELTLNERPVKAKSKVRVGDLIAVKAK,0.0878
26,HMGLIAPMPGQIRSVAVSVGDVVKKGQTLLTMEAMKMEIRIQALKDGRVTALHAAQGQTVEGEQILIEVE,-0.652
27,HMQIKNVDYGTFLDMLDEKNVKEVEIEDEQIVFTDNADPTGYYTTGRMEDPDLVDRLHNSGATFSAI,-0.841
28,HMEKAKVPSVIGMTEANAKRTIRDAGFKVGRVTRVESEAYDKGKVIEQQYEAGSELEKKKPISIVVSKGKK,0.152

row,Sequence,soluble fraction (log2)
1,HMLVGGPDTPSKVTVSFDLGSRQAVDELTERAGAAGGRIGDIDDYPFMYQRQFDDPDGYHYSPFWMKP,-0.528
2,HMSLPKVLVPTDITVSQLAKYLEVDAIAIVKKLFGLGVVASLNQRLENEQMQLLGQEFGKDIIFTEN,-0.318
3,HMELARLRPELDGNDIMRILGVPPGPVVGRAYTYLLELRINQGELGRERVTQLLLDWAAAEGISA,-1.8
4,HMKQISNTDELETMVKKIIDDNEEQVNKYRGGNEKLFGWFVGQAMKNTGGTANPKVVNEILSKLLK,≥ 0.43
5,HMAPLAVIFPEPWRGMIAPEKLEGLTQALSLNPRPGYQHDPTRRYGVSLDGLDVRFTIDGDTLTVVEVVT,-1.12
6,HMSTFKSYRGKITASSGVNIRTGAGTNYNKNGALTYNSVVTIVDEKKVSGTTWGKLADGRGWISLDYLKK,0.105
7,HMIDQIAEQLQQRLAVDTAFATIQRDYPDVIANKDIELLTAIKVNQKIAEGASRASAMLESAKEVYETL,-0.329
8,HMSLYGGYEIDIIKEEVVDAGIKLLRRRVIVADQRGISVYEGKPTFASDDQVLIKEGQYQIDKLG,-1.46
9,HMRLSDSEFESIENAIKEKLENSALTADVLVKELSFDEDKIWKVIRWLEDAEKISEDEAGTLLWKPR,-0.76
10,HMDLGTHMRLIVPTGMRVDHIVYESNGKNISVDHDRSISVRWNGEVVSIDVSPLPSRPDFDVLIYMSPK,-0.162
11,HMPTPLTPREHEIANLIAQGLSNREIADELVISPATAARHVANILAKLGFSSRTQVASWATRHD,-0.237
12,HMQTTVHLSPEEMVIMNALKQESPIDLPILRAQVEMSNKLWDTSMKNLSKLGQLKVEKIGEQVSVSLI,≥ 0.43
13,HMYYDDEELDDYRGKASDAYTAAEVEQFEEVLTTMRPEEVHGWLRSLQLRGVALPDALKDEAYMIVSEQAE,-0.727
14,HMRPTHYSGPSVIAMINNRVWFSDGSRLAPGEHHDDLEVVGLSPPWSAKVRWQGVEFDVGLFE,-0.946
15,HMAKSKYETHVLPNLDKIIKWAKAGATAKEIAANLHIAYSTFRKYLDEGQEGDERYAALSAAFAQA,0.22
16,HMEEQIEVPVQINGKVRSKLTVAPETDEKQIEALALADPKVQQQLEGKRVLKVIVAQKRLVNIVA,-0.035
17,HMNNTIKFFVSQDDDSTRLDVFLSKKIENLTRSNIKKFINLNNVKINKATINSPSKKVKLYDEIEIKFSS,-1.19
18,HMYMTTADADMWKYVNTGRYNNDIQLMEEYKNRSMDSFEVITPEQQRKYNKAAMNLNSYYAWADPSYKPNP,-0.888
19,HMRADYVGGLDPAGDNFLALRTGPGSGYAMILPMGPGTFVTVLRRNGKWLLVELEDGTRGWAYGSYILG,-1.16
20,HMVGEQISYIPLKFATASEVVKSLTSMFQQQKGIAPIRIVAEERTNAILLLASEADTARVKNLIAMMDKGV,-0.0978
21,HMKKIDVEVVRSQLIAWMADNGKSQAEVSKSMGISASALSMFIKGTYTGDNEQIGRKAAALMDLVHRQSA,0.189
22,HMDKSLDFASIKSVEIATGRKFGWHALKKWSKSNSSEIKTIPDPNFGEVKTYHKDAWLAVYNINLSPILD,-0.0629
23,HMSFDGFSDRLKSVLNSGKYTQKEAAEKINISEYSFTKYLNGRIPQTEILYKIARLYNKSMEWLLTGKDPI,-0.158
24,HMSNLENSLNESLSLLKSNKYNEALEILKKIEIEDSRVFFLLGTIYSVMKNINLGEEFLIKASK,-1.32
25,HMYDESVFTGEYHYYYEKLSDDDKLIYRQIYAMMQKRMDGISLNTTDTDNVSRIQQFVLLDNPQF,-2.43
26,HMQSQIAQLYNPLLGYVKKRINSREDAEDLTQDIFLKLSKSNKDGVDNLKSWLYTIAKNTITDYYRKKKII,-0.0414
27,HMKDIIVDPQGQYNHPGVPTRIPSSDITMKGVGYPVLGIADNGQKQMMQPGQDYKFPGAKYVDEYPQM,0.0501
